One molecule from US20170320924A1 (UNIVERSITY OF YAMANASHI, published 2017) can be followed below.

The assay has as its target T1, human CLEC-2 (C-type lectin-like receptor 2) (human, UniProt Q9P126 1-229).
T1 construct: whole, on cells; also called T-REx human CLEC-2 expressing 293 cells
The experiment in a line: column 'CLEC-2 binding' of the summary Table 10.

T1 sequence (Q9P126 whole entry): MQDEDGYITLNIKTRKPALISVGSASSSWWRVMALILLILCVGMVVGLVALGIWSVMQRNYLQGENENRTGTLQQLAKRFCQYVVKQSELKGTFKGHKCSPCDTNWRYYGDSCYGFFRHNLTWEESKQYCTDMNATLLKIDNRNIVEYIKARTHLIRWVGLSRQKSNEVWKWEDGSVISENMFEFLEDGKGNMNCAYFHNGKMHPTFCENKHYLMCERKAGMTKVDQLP

B1: mutant rhodocytin derived from cell No. 3 (R28A and K31A) (ligand)
alpha: GLEDCDFGWSPYDQHCYQAFNEQKTWDEAEKFCRAQENGAHLASIESNGEADFVSWLISQKDELADEDYVWIGLRAQNKEQQCSSEWSDGSSVSYENLIDLHTKKCGALEKLTGFRKWVNYYCEQMHAFVCKLLPY
beta: DCPSGWSSYEGHCYKPFNEPKNWADAEAFCALQPKHSHLVSFQSAEEADFVVKLTRPRLKANLVWMGLSNIWHGCNWQWSDGARLNYKDWQEQSECLAFRGVHTEWLNMDCSSTCSFVCKFKA
modifications: α and β subunits are disulfide-linked. BN-PAGE shows a heterotrimer; each distinct subunit is given once.
notes: also called R28A, K31A
As to B1, the binding result is given as “binds”.
